Laboratory results: patent publication US20030149244A1 (Genentech, published 2003)

B1: MaE11 (antibody, mouse IgG1, V domains shown)
VH: DVQLQESGPGLVKPSQSLSLACSVTGYSITSGYSWNWIRQFPGNKLEWMGSITYDGSSNYNPSLKNRISVTRDTSQNQFFLKLNSATAEDTATYYCARGSHYFGHWHFAVWGAGTTVTVSS
VL: DIQLTQSPASLAVSLGQRATISCKASQSVDYDGDSYMNWYQQKPGQPPILLIYAASYLGSEIPARFSGSGSGTDFTLNIHPVEEEDAATFYCQQSHEDPYTFGAGTKLEIK
notes: murine IgG1; also called murine MaE11; MeE11
B2: MaE15 (antibody, V domains shown)
VH: DVQHQESEPDLVKPSQSLSLTCTVTGYSITSGYNRHWIRQFPGNKLEWMGYIHYSGSTNYNPSLKRRISITRDTSKNQFFLQLNSVTTEDTATYYCARGSIYYYGSRYRYFDVWGAGTTVTVSS
VL: DIQLTQSPASLAVSLGQRATISCKASQSVDYDGDSYMNWYQQKPGQPPKLLIYAASNLESGIPARFSGSGSGTDFTLNIHPVEEEDAATYYCQQSNEDPFTFGAGT
B3: MaE13 (antibody, V domains shown)
VH: DVQLQESGPGLVKPSQSLSLTCTVTGYTITSDNAWNWIRQFPGNKLEWMGYINHSGTTSYNPSLKSRISITRDTSKNQFFLQLNSVTTEDTATYYCAWVVAYAMDYWGQGTSVTVSS
VL: DIVMTQSQKFMSTSVGDRVSVTCKASQNVSSNVAWYQQKPGQSPKALIYSASYRYSGVPDRFTGSGSGTDFTLTISNVQSEDLAEYFCQQYYTYPLYTFGGGTKLEIK

How the values were obtained:
human IgE [1] = molecular target: T1, human IgE (human, UniProt P01854 1-546, FITC-, biotin- or 125I-labelled in some assays); assay: soluble receptor ELISA, ratio of 50% inhibition concentrations
T1 sequence (P01854 whole entry): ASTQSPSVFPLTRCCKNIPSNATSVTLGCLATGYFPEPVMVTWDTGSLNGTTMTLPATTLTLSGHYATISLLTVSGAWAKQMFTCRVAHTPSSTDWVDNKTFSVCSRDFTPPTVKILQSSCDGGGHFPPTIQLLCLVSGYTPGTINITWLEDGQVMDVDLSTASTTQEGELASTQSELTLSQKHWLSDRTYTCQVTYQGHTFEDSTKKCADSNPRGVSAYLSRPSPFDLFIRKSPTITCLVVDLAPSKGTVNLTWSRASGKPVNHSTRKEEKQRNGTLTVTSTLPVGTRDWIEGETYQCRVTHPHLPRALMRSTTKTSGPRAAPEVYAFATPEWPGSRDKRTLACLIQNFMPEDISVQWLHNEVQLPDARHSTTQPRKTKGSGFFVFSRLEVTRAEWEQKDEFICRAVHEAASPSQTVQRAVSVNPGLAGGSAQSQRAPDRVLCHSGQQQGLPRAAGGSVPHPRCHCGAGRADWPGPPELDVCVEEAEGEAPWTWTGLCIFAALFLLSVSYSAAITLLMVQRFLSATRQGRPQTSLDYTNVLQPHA

human IgE [2] = molecular target: T1, human IgE; assay: as above; remark: listed apart in the source
[3] = molecular target: membrane IgE on U266B1 cells (human, UniProt P01854 1-546); assay: FACS on membrane IgE+ U266B1 cells
Chain of membrane IgE on U266B1 cells (P01854 whole entry, one chain of several): as the sequence (P01854 whole entry) above

human IgE [4] = molecular target: T1, human IgE; assay: FACS, blocking of FITC-IgE binding to FcεRII (CD23) on IM9 cells

Row | ratio F(ab)-X / F(ab)-2 (human IgE [1]) | ratio F(ab)-X / MaE11 (human IgE [1]) | ratio Variant X / IgG1-2 (human IgE [2]) | ratio Variant X / MaE11 (human IgE [2]) | EC50 [3] [µg/mL] | EC50 (human IgE [4]) [µg/mL] | Binder
1 | 0.03 | 1 | 0.06 | 1 |  |  | B1
2 |  |  |  |  | 6 | 0.6 | B2
3 |  |  |  |  | 1 | 0.7 | B3
